Measured values: paper PMC4191077, “Modeling hemoglobin and hemoglobin:haptoglobin complex clearance in a non-rodent species–pharmacokinetic and therapeutic implications” (Frontiers in Physiology, 2014)

Target: T1, Dog haptoglobin (purified) (dog, UniProt P19006 1-83; P19006 85-329)
T1 construct: haptoglobin alpha chain, dog; haptoglobin beta chain, dog; The supplier is named only for the fluorescent labelling; also called dog Hp; source: bought: Lee Biosolutions (St. Louis, Missouri USA); copies: 2 + 2
T1 sequence (looked up) 1: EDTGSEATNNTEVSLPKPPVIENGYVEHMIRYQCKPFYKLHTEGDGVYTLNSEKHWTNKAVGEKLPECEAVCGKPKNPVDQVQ
T1 sequence (looked up) 2: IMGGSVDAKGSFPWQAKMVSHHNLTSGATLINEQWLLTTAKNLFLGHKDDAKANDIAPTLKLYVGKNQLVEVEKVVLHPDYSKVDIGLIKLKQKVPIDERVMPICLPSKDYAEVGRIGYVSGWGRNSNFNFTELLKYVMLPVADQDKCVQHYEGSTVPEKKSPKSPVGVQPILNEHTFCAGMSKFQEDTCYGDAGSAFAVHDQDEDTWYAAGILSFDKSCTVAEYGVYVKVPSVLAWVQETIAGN
Assay: SEC; purified standards of Hb and Hb:Hp complexes on a BioSep-SEC-S3000 column (600 x 7.5 mm), detection at 405 nm
Conditions: both partners purified

binding result: binds
B1: Dog hemoglobin (natural protein)
chain 1: not shown
chain 2: not shown
notes: hemoglobin subunit alpha, dog; hemoglobin subunit beta, dog; also called dog Hb; purified dog Hb; source: prepared using a standardized method previously described (Palmer et al., 2009)
